The values that follow come from US10604566B2, “Antagonists of IL-17C for the treatment and/or prevention of atopic dermatitis” (MORPHOSYS AG, priority 2015, dated 2020).

In assay [1] the test system is MC903-treated mice. Nature of the assay: MC903 mouse model of atopic dermatitis. The assay is classed as in vivo, BALB/c mice. Particulars: 3x10 mg/kg i.p. The text has this: The pro-inflammatory function of IL-17C in atopic dermatitis was examined in a non-infectious cutaneous inflammation mouse model of atopic dermatitis where topical application of the low-calcemic vitamin D3 analogue MC903 (calcipotriol) induces atopic dermatitis like skin lesion characterized by a red and scaly skin, accompanied by an epidermal hyperplasia and dermal infiltration of various cell types as well as an increase of Th2 cytokine in skin and elevated serum IgE (Li et al., 2006; Li et al, 2009). The MC903 mouse model is a widely accepted and predictable model to mimic the Th2 driven symptoms of atopic dermatitis in vivo.
BALB/c mice (female, 8-week old) were obtained from Janvier Labs (France). Mice were kept on a 12 hours light/dark cycle (0700-1900). Temperature was maintained at 22° C., and food and water were provided ad libitum.
In order to induce an AD-like response, 2 nmol MC903 (Tocris, dissolved in ethanol) was topical applied in a volume of 20 μL on both ears of mice for 5 consecutive days. A non-disease control group received the same quantity of ethanol (EtOH).
The severity of skin inflammation (erythema and thickening) was observed daily. Ear thickness was measured with an electronic caliper (Mitutoyo). Inflammation was further assessed using an in vivo imaging technique. To that end, Prosense 680 probe (1.6 nmol, Perkin Elmer) was administered by intraperitoneal route 24 hours before imaging. Imaging was performed with the Bruker In-vivo Xtreme Imaging System. Images were captured by a deeply cooled 4MP CCD camera (f-stop 1.1, binning 2×2, 5 sec acquisition time, Ex 630 nm, Em 700 nm). For anatomical co-registration, a reflectance image was taken (f-stop 2.8, 0.175 sec acquisition time). All images were taken with a 190×190 field of view and images were analysed using Molecular Imaging Software version 7.1 (Bruker Biospin, Billerica, Mass., USA). For each group, the mean values and standard error of mean (sem) was calculated using for each mouse the mean value of left and right ear.
At sacrifice, samples form ear skin were collected and fixed in 4% formaldehyde before embedding in paraffin. 4 μm-thick slices were stained with hematoxylin and eosin (H&E stain) for histomorphometric evaluation of epidermal thickness by image analysis with Sisn'Com software (France). Five fields per ear (high power field ×20) covering the whole ear from top to bottom were measured, and the 5 values were averaged per ear and per mice (left/right ear). An additional set of tissue slices were prepared for IHC staining of IL-17C using the anti-IL-17C biotinylated MOR12743 antibody (and biotinylated MOR03207 isotype negative control antibody). Processing and staining was essentially done as described above.
Ear skin samples were also taken for analysis of cytokine expression using qPCR or ELISA. […] Ear skin sam pies for quantification at protein level were immediately snap frozen in liquid N2 and stored at −80° C. […] 5 μL of 10-fold diluted cDNA was used in real-time quantitative PCR reactions using SYBR Green technology with gene-specific primers from Qiagen. qPCR was performed on the ViiA™ 7 Real-Time PCR System (Applied Biosystems). Gene expression was normalized to the expression of 3 different house-keeping genes (cyclophilin, b-actin and GAPDH) and expressed as relative mRNA level of specific gene expression as obtained using the 2^−ΔCt method, with ΔCt=Ctgene−Geomean Ct-value (housekeeping genes). […]

For assay [2], the target named is T1, murine IL-17C (Mus musculus, UniProt Q8K4C5).
T1 sequence (Q8K4C5 17-194): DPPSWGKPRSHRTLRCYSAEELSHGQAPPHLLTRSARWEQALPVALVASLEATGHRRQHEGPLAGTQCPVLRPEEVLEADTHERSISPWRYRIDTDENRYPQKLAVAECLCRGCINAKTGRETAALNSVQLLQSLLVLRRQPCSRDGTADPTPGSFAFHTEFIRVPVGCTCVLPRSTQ
The assay can be described thus: Binding to murine IL-17C and inhibition of IL-17C binding to IL-17RE. How it is done:
(§1) The following working examples were performed using the antibodies MOR12743 and MOR22420 (see Table 1). […] Therefore both antibodies are antagonists of IL-17C in the sense of the present disclosure. MOR12743 is already disclosed and characterized in WO 2013/057241 (U.S. Ser. No. 14/351,162), which is incorporated by reference in its entirety.

Assay [3] addresses T2, human IL-17C (Homo sapiens, UniProt Q9P0M4).
T2 sequence (Q9P0M4 19-197): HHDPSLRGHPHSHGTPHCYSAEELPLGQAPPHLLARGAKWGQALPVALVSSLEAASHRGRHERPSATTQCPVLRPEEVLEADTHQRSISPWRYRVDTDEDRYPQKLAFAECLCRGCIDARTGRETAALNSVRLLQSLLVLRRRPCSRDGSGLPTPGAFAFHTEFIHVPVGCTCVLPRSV
Nature of the assay: Binding to human IL-17C and inhibition of IL-17C binding to IL-17RE. The method, then:
as §1

B1: MOR12743: anti-IL-17C antibody, binds murine IL-17C; VH SEQ ID No.: 11, VL SEQ ID No.: 10; disclosed in WO 2013/057241 (antibody, V domains shown)
VH: QVQLVQSGAEVKKPGASVKVSCKASGYTFTSNFIHWVRQAPGQGLEWMGWISPYNGDTNYAQKFQGRVTMTRDTSISTAYMELSRLRSEDTAVYYCARESVYYGSDYGYNGMDIWGQGTLVTVSS
VL: DIELTQPPSVSVSPGQTASITCSGDNLGEEYVSWYQQKPGQAPVLVIYDDTKRPSGIPERFSGSNSGNTATLTISGTQAEDEADYYCASWDLWSVEVFGGGTKLTVLGQ
modifications: mab Library
As for B1, the “ear inflammation as assessed by in vivo imaging” value in assay [1] (day 5, Prosense 680 probe, FIG. 6) is “significantly reduced”. Moreover, the ear redness result in assay [1] (day 8, vs MC903+MOR03207 isotype control) is reported as “less red”. In assay [1] (day 8, vs MC903+MOR03207 isotype control, FIG. 5), the “ear swelling (ear thickness)” value is “significantly less swollen”. For the same molecule, the “epidermal hyperplasia (epidermal thickness)” value in assay [1] (histology H&E at sacrifice, FIG. 7) was “partially reduced”. Besides, the “TSLP expression in ears” value in assay [1] (protein, ELISA, FIG. 8) is given as “significantly inhibited”. For the same molecule, in assay [2], the “inhibition of binding of IL-17C to its receptor IL-17RE” value is reported as “inhibit binding of IL-17C to its receptor IL-17RE” and the “specific binding to IL-17C” value is recorded as “specifically bind”.

B2: MOR22420: anti-IL-17C antibody, binds human IL-17C; VH SEQ ID No.: 21, VL SEQ ID No.: 20 (antibody, V domains shown)
VH: QVQLVQSGAEVKKPGSSVKVSCKASGGTFSSYAISWVRQAPGQGLEWMGTIDPFFGKTYYAQKFQGRVTITADESTSTAYMELSSLRSEDTAVYYCARDVSSISYYFHEYYSDRFDYWGQGTLVTVSS
VL: DIALTQPASVSGSPGQSITISCTGTSSDVGGYEYVNWYQQHPGKAPKLMIYDDSYRPSGVSNRFSGSKSGNTASLTISGLQAEDEADYYCQSTDPHSTVVFGGGTKLTVLGQ
modifications: mab Library
For B2, in assay [3], the “inhibition of binding of IL-17C to its receptor IL-17RE” value is given as “inhibit binding of IL-17C to its receptor IL-17RE” and the “specific binding to IL-17C” value was “specifically bind”.
